Source: article PMC4293355 (Developmental cell, 2014)

Target: G-actin (UniProt P68135 1-377)
Assay: fluorescence polarisation

B1: TMR-SpWsp1(VCA) (domain or fragment)
chain: QDGRANLMASIRASGGMDLLKSRKVSASPSVASTKTSNPPVEAPPSNNLMDALASALNQRKTKVAQSDEEDEDDDEWD
modifications: TMR-labeled (position not given)
For B1, which Kd is on record?
The Kd was about 21 nM.
